According to article PMC10901769, “An anti-CRISPR that represses its own transcription while blocking Cas9-target DNA binding”:

Legend:
[1] = molecular target: T1, SaCas9;AcrIIA15 full-length (Staphylococcus aureus;, UniProt J7RUA5;PDB:8JG9_3 1-1053;1-171, |); assay: cryo-EM; with IR1 DNA; Promoter EMSA: 20 mM Tris-HCl pH 7.5, 300 mM NaCl, on ice/4 C, 30 min; SaCas9 EMSA: 20 mM Tris pH 7.5, 200 mM NaCl, 10 mM EDTA, RT; SPR: 10 mM Na2HPO4, 2 mM KH2PO4, 0.3 M NaCl; SEC: 20 mM Tris pH 7.5, 300 mM NaCl; details: protein: recombinant;recombinant; tags: His6-Sumo removed by Ulp1;C-terminal His6, or His6-Sumo removed by Ulp1; chain copies: 2;2; hairpin
T1 sequence 1: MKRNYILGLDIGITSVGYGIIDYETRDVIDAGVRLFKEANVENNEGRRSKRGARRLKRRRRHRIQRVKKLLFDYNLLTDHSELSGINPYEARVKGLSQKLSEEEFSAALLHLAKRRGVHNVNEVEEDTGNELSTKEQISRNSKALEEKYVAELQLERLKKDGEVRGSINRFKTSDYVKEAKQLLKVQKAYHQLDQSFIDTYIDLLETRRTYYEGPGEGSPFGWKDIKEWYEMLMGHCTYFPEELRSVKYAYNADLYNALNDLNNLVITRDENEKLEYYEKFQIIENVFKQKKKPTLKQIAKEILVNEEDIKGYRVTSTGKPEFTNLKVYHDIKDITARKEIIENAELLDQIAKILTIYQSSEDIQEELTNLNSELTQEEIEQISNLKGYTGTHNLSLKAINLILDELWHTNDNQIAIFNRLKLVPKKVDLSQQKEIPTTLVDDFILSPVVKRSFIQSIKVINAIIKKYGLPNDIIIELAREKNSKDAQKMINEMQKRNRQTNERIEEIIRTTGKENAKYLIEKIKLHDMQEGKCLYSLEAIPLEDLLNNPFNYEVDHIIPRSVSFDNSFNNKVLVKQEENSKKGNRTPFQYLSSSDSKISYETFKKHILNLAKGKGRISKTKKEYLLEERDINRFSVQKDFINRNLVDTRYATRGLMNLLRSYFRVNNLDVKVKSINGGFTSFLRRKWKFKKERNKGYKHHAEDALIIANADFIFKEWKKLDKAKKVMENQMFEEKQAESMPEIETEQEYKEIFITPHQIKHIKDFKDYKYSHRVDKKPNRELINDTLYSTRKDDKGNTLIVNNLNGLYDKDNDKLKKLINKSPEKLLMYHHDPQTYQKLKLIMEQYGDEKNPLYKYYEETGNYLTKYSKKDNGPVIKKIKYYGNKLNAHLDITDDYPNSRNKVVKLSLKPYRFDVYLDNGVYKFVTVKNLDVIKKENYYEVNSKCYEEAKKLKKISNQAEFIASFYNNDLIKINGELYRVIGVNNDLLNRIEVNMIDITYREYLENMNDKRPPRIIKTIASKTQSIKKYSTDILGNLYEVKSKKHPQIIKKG
T1 sequence 2: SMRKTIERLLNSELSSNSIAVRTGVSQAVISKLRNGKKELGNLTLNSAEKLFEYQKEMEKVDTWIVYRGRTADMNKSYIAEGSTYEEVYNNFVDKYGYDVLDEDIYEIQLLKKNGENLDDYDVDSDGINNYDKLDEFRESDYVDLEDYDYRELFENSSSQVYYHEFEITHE

SaCas9;AcrIIA15 CTD = molecular target: T2, SaCas9;AcrIIA15 CTD (Staphylococcus aureus;, UniProt J7RUA5;PDB:8JFT_3 1-1053;1-114, |); assay: cryo-EM; Promoter EMSA: 20 mM Tris-HCl pH 7.5, 300 mM NaCl, on ice/4 C, 30 min; SaCas9 EMSA: 20 mM Tris pH 7.5, 200 mM NaCl, 10 mM EDTA, RT; SPR: 10 mM Na2HPO4, 2 mM KH2PO4, 0.3 M NaCl; SEC: 20 mM Tris pH 7.5, 300 mM NaCl; details: protein: recombinant;recombinant; tags: His6-Sumo removed by Ulp1;C-His6 or His6-Sumo (removed); copies: 1;1; hairpin
T2 sequence 1: T1 sequence 1
T2 sequence 2: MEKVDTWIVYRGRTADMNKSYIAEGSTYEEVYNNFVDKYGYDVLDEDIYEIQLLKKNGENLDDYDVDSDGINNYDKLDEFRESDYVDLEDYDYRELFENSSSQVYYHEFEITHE

AcrIIA15 full-length [2] = molecular target: T3, AcrIIA15 full-length (UniProt PDB:8JG9_3 1-171); assay: EMSA; Promoter EMSA: 20 mM Tris-HCl pH 7.5, 300 mM NaCl, on ice/4 C, 30 min; SaCas9 EMSA: 20 mM Tris pH 7.5, 200 mM NaCl, 10 mM EDTA, RT; SPR: 10 mM Na2HPO4, 2 mM KH2PO4, 0.3 M NaCl; SEC: 20 mM Tris pH 7.5, 300 mM NaCl; details: protein: recombinant; tags: C-terminal His6, or His6-Sumo removed by Ulp1; chain copies: 2; blunt
T3 sequence: T1 sequence 2

AcrIIA15 NTD = molecular target: T4, AcrIIA15 NTD (UniProt PDB:8JFR_1 1-63); assay: as above; details: protein: recombinant; tags: C-His6 or His6-Sumo (removed); chain copies: 2; blunt
T4 sequence: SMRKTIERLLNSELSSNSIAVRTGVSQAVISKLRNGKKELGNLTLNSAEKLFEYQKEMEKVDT

AcrIIA15 CTD = molecular target: T5, AcrIIA15 CTD (UniProt PDB:8JFT_3 1-114); assay: as above; details: protein: recombinant; tags: C-His6 or His6-Sumo (removed); blunt
T5 sequence: T2 sequence 2

AcrIIA15 full-length [3] = molecular target: T3, AcrIIA15 full-length; assay: SEC; no stable binding; Promoter EMSA: 20 mM Tris-HCl pH 7.5, 300 mM NaCl, on ice/4 C, 30 min; SaCas9 EMSA: 20 mM Tris pH 7.5, 200 mM NaCl, 10 mM EDTA, RT; SPR: 10 mM Na2HPO4, 2 mM KH2PO4, 0.3 M NaCl; SEC: 20 mM Tris pH 7.5, 300 mM NaCl; details: protein: recombinant; tags: C-terminal His6, or His6-Sumo removed by Ulp1; chain copies: 2; blunt

B1: SaCas9 sgRNA (structured_RNA)
RNA: GGUCUGCUAUUUCUAUUUACGUUUUAGUACUCUGGAAACAGAAUCUACUAAAACAAGGCAAAAUGCCGUGUUUAUCUCGUCAACUUGUUGGCGAGAUC
binding result [1]: binds
binding result (SaCas9;AcrIIA15 CTD): binds

B2: IR1-IR2 (dsDNA)
DNA 1: ATAATTATGACAAATGTCATAGAAAAGCGTTGACTTATGACGAACGTCATAATATA
DNA 2: TATATTATGACGTTCGTCATAAGTCAACGCTTTTCTATGACATTTGTCATAATTAT
binding result (AcrIIA15 full-length [2]): binds
binding result (AcrIIA15 NTD): binds
binding result (AcrIIA15 CTD): no binding

B3: IR1' (dsDNA)
DNA 1: TTATGACAAATGTCATAG
DNA 2: CTATGACATTTGTCATAA
binding result (AcrIIA15 full-length [3]): no binding
